# Test system: MS2 coat protein
# Experiment: apparent KD of MS2 coat protein; designed switch direction (-1 OFF switch, 1 ON switch): 1; higher = weaker reporter binding
# Outline: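 Stalled E. coli RNA polymerase transcribed designed RNA switches on Illumina chips, which were then titrated with SNAP-549-labelled MS2 coat protein, doubling from 0.7 or 1.5 nM to 3 µM. Steps lasted from 0.8–1.5 h at the lowest concentration to 10–20 min at the highest. The apparent KD is each design's median over clusters of curve-fitted normalised fluorescence.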
# [1] = input ligand: microRNA oligo, concentration not stated
# [2] = Eterna round: R95, input ligand: FMN 200 uM
# [3] = Eterna round: R95, input ligand: microRNA oligo, concentration not stated
# [4] = Eterna round: R95, input ligand: none
Sequence,apparent KD of MS2 coat protein (input ligand: FMN 200 uM),apparent KD of MS2 coat protein [1],apparent KD of MS2 coat protein (input ligand: none),apparent KD of MS2 coat protein [2],apparent KD of MS2 coat protein [3],apparent KD of MS2 coat protein [4]
"UAGCUUGUGGUAGGAUAUCUAGGAUAUGGGAAGAGCUAAGCUUGGAAGUCACUUCACCCAGAAGGAGAGAAGGACCAGAGGCUU [pwkr ssNG2 2FMN + F9.6] (Eterna round: R96, puzzle: Same State NG 2)",218 nM,73.6 nM,262 nM,–,–,–
"UAGUGCGUUAGAGGAUAUUCAAGGUGAAAAAAAAAUACAUGAGGAUCACCCAUGUAAAAACAUGAGGAGAAGGCUGAUGUGCUA [Omei SS(NG)2 A] (Eterna round: R96, puzzle: Same State NG 2)",–,38 nM,–,–,–,–
"UAGUGCGUUAGAGGAUAUUCUAAAUAAAAUAAUAAGACAUGAGGAUCACCCAUGUAUGUACAUGGGAAGAAGGCUGAUGUGCUA [Omei SS(NG)2 Bv2] (Eterna round: R96, puzzle: Same State NG 2)",–,342 nM,–,–,–,–
"UAUCCAUAGAUAGGAUAUCAGUAUACAUGAGGAUCACCCAUGUUCUAUUUGGUUUUAAUUUAUUCUGAGAAGGAUCUUGAUGAA [SameState NG2 #1] (Eterna round: R96, puzzle: Same State NG 2)",13.8 nM,16.4 nM,17.6 nM,–,–,–
"UAUCCAUAGAUAGGAUAUUAGAGAACAUGAGGAUCACCCAUGUUUGGCUUGGUUUUAAGCUAAUCUGAGAAGGAUCUUGAUGAA [SameState NG2 #8] (Eterna round: R96, puzzle: Same State NG 2)",85.5 nM,185 nM,119 nM,–,–,–
"UAUCCAUAGAUAGGAUAUUAGUGAACAUGAGGAUCACCCAUGUUUUGCUUGGUUUUAAGCUAAUCUGAGAAGGAUCUUGAUGAA [SameState NG2 #6] (Eterna round: R96, puzzle: Same State NG 2)",31.5 nM,33.3 nM,41.6 nM,–,–,–
UCAAGCGAGAGGCUCGUCUUAUGUUUGGUACAUGAGGAUCACCCAUGUUAGGGACGAUUUAGUUAGAUGGAAUUUUG [JR_SHM208A_Sub035] (puzzle: Sensor for hsa-mir-208a),–,–,–,48.5 nM,269 nM,65.7 nM
"UCAGUCAUGUAAGGAUAUGCAGCCGUUUCGGCUGCAGAAGGUACUAUAAUUACAUGAGGAUCACCCAUGUUAUAAAAUUUAUAU [JL SSNG1 1.25] (Eterna round: R96, puzzle: Same State NG 1)",–,38.8 nM,–,–,–,–
"UCCGCUAUCUAGAAGGAUAUGCGUAUAUAAACAUGAGGAUCACCCAUGUACCGGCGAAAACCGGUGCAGAAGGUUUAGCUAGUGA [Rediin] (Eterna round: R96, puzzle: Same State 2)",69.8 nM,298 nM,359 nM,–,–,–
UCCGCUAUCUAGAAGGAUAUGCGUAUAUAAACAUGAGGAUCACCCAUGUACCGGCGAAAACCGGUGCAGAAGGUUUAGCUAGUGA [Rediin] (puzzle: Same State 2),–,–,–,42.3 nM,273 nM,502 nM
UCUUGGUUUUUGCUCGUUUUUUGUGUUGAACAUGAGGAUCACCCAUGUAUUGUACAAUCCAGUUUGAUAAUGGUCCA [Mod of one of JR's submissions] (puzzle: Sensor for hsa-mir-208a),–,–,–,80.2 nM,77.6 nM,102 nM
UCUUGGUUUUUGCUCGUUUUUUGUGUUGAACAUGAGGAUCACCCAUGUAUUGUACAGUCCGGUUUAGUGAUGGUCCG [JMF 58] (puzzle: Sensor for hsa-mir-208a),–,–,–,40.2 nM,32.6 nM,45 nM
UCUUGGUUUUUGCUCGUUUUUUGUGUUGAACAUGAGGAUCACCCAUGUAUUGUACGGUCCAAUUUAAUAAUAAUCCA [JMF 74] (puzzle: Sensor for hsa-mir-208a),–,–,–,59 nM,57.1 nM,82.1 nM
UCUUGGUUUUUGCUCGUUUUUUGUGUUGAACAUGAGGAUCACCCAUGUAUUGUACGGUCCAGUUUAGUAAUGGUCCA [JMF 7] (puzzle: Sensor for hsa-mir-208a),–,–,–,26.3 nM,16.3 nM,27.8 nM
UCUUGGUUUUUGCUCGUUUUUUGUGUUGAACAUGAGGAUCACCCAUGUAUUGUACGGUCCGAUUUAAUAAUGGUCCA [JMF 38] (puzzle: Sensor for hsa-mir-208a),–,–,–,30.3 nM,18.3 nM,32.4 nM
UGCCAUAGUAUAUUGGUACGUGCUUUUUGACAUGAGGAUCACCCAUGUCCUCGUCAUAUGCGCAGUCCGUAGACUGC (puzzle: Sensor for hsa-mir-208a),–,–,–,328 nM,234 nM,374 nM
"UGCUAGGAUAUCUUGAGGAUCACCCAGGAGAAGGAGCCAAGCUAGGAUAUCCUGAGGAUCACCCAGGAGAAGGAGCACAUACUC [pwkr ssNG3 DX 2xF5 +2xFMN.13] (Eterna round: R96, puzzle: Same State NG 3)",107 nM,59.6 nM,102 nM,–,–,–
"UGCUUCAUGUAAGGAUAUGCAGCCGUUUCGGCUGCAGAAGGUACUAUAAUACAUGAGGAUCACCCAUGUCUCUCGCAUUGCGAG [salish99_SSng1_r04_301] (Eterna round: R96, puzzle: Same State NG 1)",–,111 nM,–,–,–,–
"UGGCUCAGACGAGGAUAUGGUCAUGGCGCUUCGGCGCAUACAUGAGGAUCACCCAUGUAGGGUGAUCAGAAGGUGUCUGAGCCA [SSNG2/9-B2] (Eterna round: R96, puzzle: Same State NG 2)",210 nM,827 nM,1100 nM,–,–,–
"UGGCUCAGAGCAGGAUAUAUGUCUCGAGCUUCGGCUCGAGACAUGAGGAUCACCCAUGUAAUAACAUAGAAGGGCUCUGAGCCA [SSNG2/1-B2] (Eterna round: R96, puzzle: Same State NG 2)",16.3 nM,41.7 nM,74.7 nM,–,–,–
"UGGCUCAGAGCAGGAUAUAUGUGGUCACAUGAGGAUCACCCAUGUCUCGAGCUUCGGCUCGAGGCAUAGAAGGGCUCUGAGCCA [SSNG2/5-B2] (Eterna round: R96, puzzle: Same State NG 2)",550 nM,48 nM,58.1 nM,–,–,–
"UGGCUGGUGCUAGGAUAUACAUGAGGAAUCCUCGUAGAAGGAUCACGACAUGAGGAUCACCCAUGUAGCCGUCCGUAGACGGCU [salish99_SSNG1_r04_006] (Eterna round: R96, puzzle: Same State NG 1)",1930 nM,190 nM,312 nM,–,–,–
"UGGCUGGUGCUAGGAUAUGCAUGAGGCCUCCUCGUAGAAGGAGCACGACAUGAGGAUCACCCAUGUGGCCGUCCGUGGACGGCU [salish99_SSNG1_r04_014] (Eterna round: R96, puzzle: Same State NG 1)",45.4 nM,44.9 nM,56.1 nM,–,–,–
UGUCCAGCCUGAGCUGGACAAAAGCAUGUACAUGAGGAUCACCCAUGUUCAUGUACAAGCUUUUUGCUCGUCUUAAA [salish99_208a_r3_030] (puzzle: Sensor for hsa-mir-208a),–,–,–,325 nM,14.7 nM,370 nM
